Assay results as given in article PMC2910870.

Assays:
Assay in all cases: SPR
[1] = target: NL1A (rat neuroligin 1 cholinesterase-like region, with insert A, without insert B) (rat)
[2] = target: NL1B (rat neuroligin 1 cholinesterase-like region, with insert B, without insert A) (rat)
[3] = target: NL3A1 (rat neuroligin 3 cholinesterase-like region, with insert A1, without insert A2) (rat)
[4] = target: NL3A2 (rat neuroligin 3 cholinesterase-like region, with insert A2, without insert A1) (rat)
[5] = target: NL1Δ (rat neuroligin 1 cholinesterase-like region, without inserts A and B) (rat)
[6] = target: NL3Δ (rat neuroligin 3 cholinesterase-like region, without inserts A1 and A2) (rat)
[7] = target: NL2Δ (rat neuroligin 2 cholinesterase-like region, without insert A) (rat)
[8] = target: NL3A1A2 (rat neuroligin 3 cholinesterase-like region, with inserts A1 and A2) (rat) (UniProt Q62889)
[9] = target: NL1AB (rat neuroligin 1 cholinesterase-like region, with inserts A and B) (rat) (UniProt Q62765)
[10] = target: NL2A (rat neuroligin 2 cholinesterase-like region, with insert A) (rat) (UniProt Q62888)

β-NRX2+4 (rat β-neurexin 2 LNS domain, with splice insert 4), sequence (Q63376 87-290): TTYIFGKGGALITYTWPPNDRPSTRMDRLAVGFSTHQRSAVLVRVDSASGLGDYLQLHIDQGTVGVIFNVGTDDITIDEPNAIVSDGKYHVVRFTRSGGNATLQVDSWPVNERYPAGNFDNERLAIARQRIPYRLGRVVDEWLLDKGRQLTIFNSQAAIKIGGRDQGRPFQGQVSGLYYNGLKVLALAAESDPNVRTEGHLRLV
β-NRX1+4 (mouse β-neurexin 1 LNS domain, with splice insert 4), sequence (P0DI97 86-288): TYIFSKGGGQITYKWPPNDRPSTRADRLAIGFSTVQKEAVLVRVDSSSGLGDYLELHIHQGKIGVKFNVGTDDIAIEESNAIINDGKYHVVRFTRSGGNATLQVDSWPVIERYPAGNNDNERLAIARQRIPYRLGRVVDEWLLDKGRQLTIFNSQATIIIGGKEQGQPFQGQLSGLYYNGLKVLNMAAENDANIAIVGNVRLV

Substance	Kd [1] [µM]	Kd [2] [µM]	Kd [3] [µM]	Kd [4] [µM]	Kd [5] [µM]	Kd [6] [µM]	Kd [7] [µM]	Kd [8] [µM]	Kd [9] [µM]	Kd [10] [µM]
β-NRX1+4 (mouse β-neurexin 1 LNS domain, with splice insert 4) (from UniProt P0DI97 86-288) (domain or fragment)	2.1	2.75	12	21.9	1.54	23.8	3.52			
β-NRX1Δ4 (mouse β-neurexin 1 LNS domain, lacking splice insert 4) (domain or fragment)	0.845	1.16	7.45	7.15	0.828	8.17	0.964	6.57	1.21	
β-NRX2+4 (rat β-neurexin 2 LNS domain, with splice insert 4) (from UniProt Q63376 87-290) (domain or fragment)	3.32	5.48	20.5	42.2	3.77	56.8	3.39			
β-NRX2Δ4 (rat β-neurexin 2 LNS domain, lacking splice insert 4) (domain or fragment)	1.47	2.21	9.05		0.917	16.5	0.706	15.3	2.29	
β-NRX3+4 (mouse β-neurexin 3 LNS domain, with splice insert 4) (domain or fragment)	0.246	0.365	4.32		0.332	9.73	0.262	9.39	0.393	0.239
β-NRX3Δ4 (mouse β-neurexin 3 LNS domain, lacking splice insert 4) (domain or fragment)	0.782		6.26	11.2	1.02	10.1	0.418	10.9		0.369
